Measured values taken from patent US20240002497A1 (Merck Sharp & Dohme, published 2024).
One block for each binder: values may come before it.

How the values were obtained:
huNav1.7α+β1-β2-β3 = molecular target: T1, huNav1.7α+β1-β2-β3 (human, UniProt Q15858 1-1988; Q07699 19-218; O60939 30-215; Q9NY72 23-215); assay: binding FACS, CHO FlpIn cells
T1 construct: 5N11S variant; also called huNav1.7-beta1-beta2-beta3; huNav1.7α+Navβ1-Navβ2-Navβ3
Outline: (§1)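 Cells in FACS buffer (PBS, 10% FBS, NaN₃) were incubated with purified FLAG3-tagged ISVD for 30 minutes at 4° C. Bound ISVD was detected by flow cytometry with murine anti-Flag, and dead cells were excluded with 1 μg/mL propidium iodide.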

huNav1.7α + β1 (HEKa/β1) = molecular target: T2, huNav1.7α + β1 (HEKa/β1) (human, UniProt Q15858 1-1988; Q07699 19-218); assay: binding FACS, HEKa/β1 cells
T2 construct: also called HEKa/β1 huNav1.7α
Method: Binding of the ISVDs to cell-expressed Nav1.7α was detected via murine anti-Flag (Sigma, catalog #F1804). Briefly, cells were resuspended in FACS buffer (PBS, 10% FBS, NaN₃) and transferred to a 96-well V-bottom plate at 1×10^5 cells/well. Purified FLAG3-tagged ISVD was diluted in FACS buffer and added to the cells for 30 minutes at 4° C. […] Prior to the read-out, the samples were resuspended in 1 μg/mL propidium iodide (Sigma, catalog #P4170) to exclude dead cells. Between each step, the cells were centrifuged for 5 minutes at 200 grams and washed with 100 μL/well FACS buffer.

huNav1.7α + β1-β2-β3 = molecular target: T3, huNav1.7α + β1-β2-β3 (human, UniProt Q15858 1-1988; A5A6L6 19-218; O60939 30-215; Q2KI11 23-215); assay: binding FACS, CHO FlpIn cells
T3 construct: Cell line (CHO FlpIn, HEK FlpIn, transient HEK293T) is named under assay; also called huNav1.7-beta1-beta2-beta3; human Nav1.7α with Navβ1, Navβ2 and Navβ3
Outline: as §1

B1: F010301301 (VHH)
VHH: EVQLVESGGGLVQAGGSLRLSCDASGRILRTGYMRWHRQGAGKQREFVARITDDSATDYADSVKGRFTISRDNAKNTVYLQMNNLNPEDTAVYYCEALVTASVRGGSIHSGTYWGRGTLVTVSS
notes: vs 387G05: I31T
EC50 (huNav1.7α+β1-β2-β3): 7.3 nM

B2: F010301313 (VHH)
VHH: EVQLVESGGGLVQAGGSLRLSCDASGRILRIGYMKWHRQGAGKQREFVARITDDSATDYADSVKGRFTISRDNAKNTVYLQMNNLNPEDTAVYYCEALVTASVRGGSIHSGTYWGRGTLVTVSS
notes: vs 387G05: R35K
EC50 (huNav1.7α+β1-β2-β3): 5.5 nM

B3: F010301328 (VHH)
VHH: EVQLVESGGGLVQAGGSLRLSCDASGRILRIGYMRWHRQGAGKQREFVARITDDSAVDYADSVKGRFTISRDNAKNTVYLQMNNLNPEDTAVYYCEALVTASVRGGSIHSGTYWGRGTLVTVSS
notes: vs 387G05: T57V
EC50 (huNav1.7α+β1-β2-β3): 5 nM

B4: F010301309 (VHH)
VHH: EVQLVESGGGLVQAGGSLRLSCDASGRIVRIGYMRWHRQGAGKQREFVARITDDSATDYADSVKGRFTISRDNAKNTVYLQMNNLNPEDTAVYYCEALVTASVRGGSIHSGTYWGRGTLVTVSS
notes: vs 387G05: L29V
EC50 (huNav1.7α+β1-β2-β3): 5.4 nM

B5: F010301409 (VHH)
VHH: EVQLVESGGGLVQAGGSLRLSCDASGRILRIGYMRWHRQGAGKQREFVARITDDSATDYADSVKGRFTISRDNAKNTVYLQMNNLNPEDTAVYYCEALVTASVRGGSIVSGTYWGRGTLVTVSS
notes: vs 387G05: H100fV
EC50 (huNav1.7α+β1-β2-β3): 5.1 nM

B6: F010301304 (VHH)
VHH: EVQLVESGGGLVQAGGSLRLSCDASGRILRWGYMRWHRQGAGKQREFVARITDDSATDYADSVKGRFTISRDNAKNTVYLQMNNLNPEDTAVYYCEALVTASVRGGSIHSGTYWGRGTLVTVSS
notes: vs 387G05: I31W
EC50 (huNav1.7α+β1-β2-β3): 5.7 nM

B7: F010301387 (VHH)
VHH: EVQLVESGGGLVQAGGSLRLSCDASGRILRIGYMRWHRQGAGKQREFVARITDDSATDYADSVKGRFTISRDNAKNTVYLQMNNLNPEDTAVYYCEALVTASARGGSIHSGTYWGRGTLVTVSS
notes: vs 387G05: V100A
EC50 (huNav1.7α+β1-β2-β3): 5.2 nM

B8: F010301335 (VHH)
VHH: EVQLVESGGGLVQAGGSLRLSCDASGRILRIGYMRWHRQGAGKQREFVAVITDDSATDYADSVKGRFTISRDNAKNTVYLQMNNLNPEDTAVYYCEALVTASVRGGSIHSGTYWGRGTLVTVSS
notes: vs 387G05: R50V
EC50 (huNav1.7α+β1-β2-β3): 7.9 nM

B9: F010301360 (VHH)
VHH: EVQLVESGGGLVQAGGSLRLSCDASGRILRIGYMRWHRQGAGKQREFVARITDDSTTDYADSVKGRFTISRDNAKNTVYLQMNNLNPEDTAVYYCEALVTASVRGGSIHSGTYWGRGTLVTVSS
notes: vs 387G05: A56T
EC50 (huNav1.7α+β1-β2-β3): 5.2 nM

B10: F010301596 (VHH)
VHH: EVQLVESGGGLVQAGGSLRLSCAASVRPFSTSAMGWFRQAPEKEREAVAGILWNGIVTYYADSVKGRFTISRDNAKNEVYLQMNKLKPEDTAVYYCALDRDYAGRSFSAYEYEYWGQGTLVTVSS
notes: G99A vs F0103362B08 (Kabat)
EC50 (huNav1.7α + β1 (HEKa/β1)): 50 nM
EC50 (huNav1.7α + β1-β2-β3): 140 nM

B12: F010301606 (VHH)
VHH: EVQLVESGGGLVQAGGSLRLSCAASVRPFSTSAMGWFRQAPEKEREAVAGILWNGIVTYYADSVKGRFTISRDNAKNEVYLQMNKLKPEDTAVYYCALDRDYGGRSFSAKEYEYWGQGTLVTVSS
notes: Y100fK vs F0103362B08 (Kabat)
EC50 (huNav1.7α + β1 (HEKa/β1)): 24 nM
EC50 (huNav1.7α + β1-β2-β3): 65 nM

B16: F010301604 (VHH)
VHH: EVQLVESGGGLVQAGGSLRLSCAASVRPFSTSAMGWFRQAPEKEREAVAGILWNGIVTYYADSVKGRFTISRDNAKNEVYLQMNKLKPEDTAVYYCALDRDYGGQSFSAYEYEYWGQGTLVTVSS
notes: R100aQ vs F0103362B08 (Kabat)
EC50 (huNav1.7α + β1 (HEKa/β1)): 52 nM
EC50 (huNav1.7α + β1-β2-β3): 190 nM

B17: F010301598 (VHH)
VHH: EVQLVESGGGLVQAGGSLRLSCAASVRPFSTSAMGWFRQAPEKEREAVAGILWNGIVTYYADSVKGRFTISRDNAKNEVYLQMNKLKPEDTAVYYCALDRDYQGRSFSAYEYEYWGQGTLVTVSS
notes: G99Q vs F0103362B08 (Kabat)
EC50 (huNav1.7α + β1 (HEKa/β1)): 29 nM
EC50 (huNav1.7α + β1-β2-β3): 89 nM

B22: F010301607 (VHH)
VHH: EVQLVESGGGLVQAGGSLRLSCAASVRPFSTSAMGWFRQAPEKEREAVAGILWNGIVTYYADSVKGRFTISRDNAKNEVYLQMNKLKPEDTAVYYCALDRDYGGRSFSAAEYEYWGQGTLVTVSS
notes: Y100fA vs F0103362B08 (Kabat)
EC50 (huNav1.7α + β1 (HEKa/β1)): 30 nM
EC50 (huNav1.7α + β1-β2-β3): 90 nM

Further lines, results first:

EC50 (huNav1.7α + β1 (HEKa/β1)): 37 nM
EC50 (huNav1.7α + β1-β2-β3): 190 nM
B11: F010301609 (VHH)
VHH: EVQLVESGGGLVQAGGSLRLSCAASVRPFSTSAMGWFRQAPEKEREAVAGILWNGIVTYYADSVKGRFTISRDNAKNEVYLQMNKLKPEDTAVYYCALDRDYGGRSFSAQEYEYWGQGTLVTVSS
notes: Y100fQ vs F0103362B08 (Kabat)

EC50 (huNav1.7α + β1 (HEKa/β1)): 47 nM
EC50 (huNav1.7α + β1-β2-β3): 180 nM
B13: F010301619 (VHH)
VHH: EVQLVESGGGLVQAGGSLRLSCAASVRPFSTSAMGWFRQAPEKEREAVAGILWNGIVTYYADSVKGRFTISRDNAKNEVYLQMNKLKPEDTAVYYCALDRDYGGRSKSAYEYEYWGQGTLVTVSS
notes: F100cK vs F0103362B08 (Kabat)

EC50 (huNav1.7α + β1 (HEKa/β1)): 23 nM
EC50 (huNav1.7α + β1-β2-β3): 76 nM
B14: F010301627 (VHH)
VHH: EVQLVESGGGLVQAGGSLRLSCAASVRPFSTSAMGWFRQAPEKEREAVAAILWNGIVTYYADSVKGRFTISRDNAKNEVYLQMNKLKPEDTAVYYCALDRDYGGRSFSAYEYEYWGQGTLVTVSS
notes: G50A vs F0103362B08 (Kabat)

EC50 (huNav1.7α + β1 (HEKa/β1)): 34 nM
EC50 (huNav1.7α + β1-β2-β3): 150 nM
B15: F010301621 (VHH)
VHH: EVQLVESGGGLVQAGGSLRLSCAASVRPFSTSAMGWFRQAPEKEREAVAGILWNGIVTYYADSVKGRFTISRDNAKNEVYLQMNKLKPEDTAVYYCALDRDYGGRSFSAGEYEYWGQGTLVTVSS
notes: Y100fG vs F0103362B08 (Kabat)

EC50 (huNav1.7α + β1 (HEKa/β1)): 40 nM
EC50 (huNav1.7α + β1-β2-β3): 170 nM
B18: F010301622 (VHH)
VHH: EVQLVESGGGLVQAGGSLRLSCAASVRPFSTSAMGWFRQAPEKEREAVAGILWNGIVTYYADSVKGRFTISRDNAKNEVYLQMNKLKPEDTAVYYCALDRDYGGRSFSADEYEYWGQGTLVTVSS
notes: Y100fD vs F0103362B08 (Kabat)

EC50 (huNav1.7α + β1 (HEKa/β1)): 42 nM
EC50 (huNav1.7α + β1-β2-β3): 120 nM
B19: F010301629 (VHH)
VHH: EVQLVESGGGLVQAGGSLRLSCAASVRPFSTSAMGWFRQAPEKEREAVASILWNGIVTYYADSVKGRFTISRDNAKNEVYLQMNKLKPEDTAVYYCALDRDYGGRSFSAYEYEYWGQGTLVTVSS
notes: G50S vs F0103362B08 (Kabat)

EC50 (huNav1.7α + β1 (HEKa/β1)): 39 nM
EC50 (huNav1.7α + β1-β2-β3): 190 nM
B20: F010301618 (VHH)
VHH: EVQLVESGGGLVQAGGSLRLSCAASVRPFSTSAMGWFRQAPEKEREAVAGILWNGIVTYYADSVKGRFTISRDNAKNEVYLQMNKLKPEDTAVYYCALDRDYGGRSFSAYEYEHWGQGTLVTVSS
notes: Y102H vs F0103362B08 (Kabat)

EC50 (huNav1.7α + β1 (HEKa/β1)): 44 nM
EC50 (huNav1.7α + β1-β2-β3): 170 nM
B21: F010301617 (VHH)
VHH: EVQLVESGGGLVQAGGSLRLSCAASVRPFSTSAMGWFRQAPEKEREAVAGILWNGIVTYYADSVKGRFTISRDNAKNEVYLQMNKLKPEDTAVYYCALDRDYGGRSQSAYEYEYWGQGTLVTVSS
notes: F100cQ vs F0103362B08 (Kabat)

EC50 (huNav1.7α + β1 (HEKa/β1)): 44 nM
EC50 (huNav1.7α + β1-β2-β3): 170 nM
B23: F010301612 (VHH)
VHH: EVQLVESGGGLVQAGGSLRLSCAASVRPFSTSAMGWFRQAPEKEREAVAGILWNGIVTYYADSVKGRFTISRDNAKNEVYLQMNKLKPEDTAVYYCALDRDYGGRSFSATEYEYWGQGTLVTVSS
notes: Y100fT vs F0103362B08 (Kabat)
